{
  "source": "patent US20210198657A1",
  "about": "(TRUSTEES OF BOSTON COLLEGE, published 2021)",
  "target": "T1, human serum albumin (human, UniProt P02768 25-609)",
  "T1 construct": "Reagent protein; also called HSA",
  "T1 sequence (P02768 25-609 limits assumed)": "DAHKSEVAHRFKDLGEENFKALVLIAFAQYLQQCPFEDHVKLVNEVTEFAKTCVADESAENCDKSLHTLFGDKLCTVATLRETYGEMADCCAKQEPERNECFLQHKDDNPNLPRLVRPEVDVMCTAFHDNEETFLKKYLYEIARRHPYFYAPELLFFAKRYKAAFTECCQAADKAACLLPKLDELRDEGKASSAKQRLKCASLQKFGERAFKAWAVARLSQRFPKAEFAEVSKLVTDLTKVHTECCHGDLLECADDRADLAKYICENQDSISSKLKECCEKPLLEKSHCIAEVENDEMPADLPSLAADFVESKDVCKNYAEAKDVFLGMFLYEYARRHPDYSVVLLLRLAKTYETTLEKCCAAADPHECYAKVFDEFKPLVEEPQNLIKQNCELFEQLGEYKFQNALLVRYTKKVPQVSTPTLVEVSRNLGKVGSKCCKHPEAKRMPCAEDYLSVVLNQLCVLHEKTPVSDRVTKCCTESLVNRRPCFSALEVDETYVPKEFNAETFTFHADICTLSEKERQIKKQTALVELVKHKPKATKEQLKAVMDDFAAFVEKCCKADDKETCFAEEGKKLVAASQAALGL",
  "experiment": "fluorescence anisotropy, 500 nM peptide with varied protein concentrations in PBS pH 7.4",
  "protocol": "FIGS. 16A-16B show further evaluation of the protein-enhanced bacterial staining by KAM5. (A) Flow cytometry comparison of HSA and BSA in enhancing KAM5 binding to S. aureus. (B) Assessing protein binding of KAM5 using fluorescence anisotropy, for which various concentrations of BSA or HSA were delivered to a 96-well plate (Corning 3603) in PBS (pH 7.4). Peptide was added at a final concentration of 500 nM and incubated for 1 hour. Anisotropy values were measured (Ex: 495 nm, Em: 532 nm) and plotted as an average of three trials with standard deviations. Fluorescein was used as a negative control. The results clearly show binding of KAM5 to these serum proteins.\nThe cell staining ability of KAM5 was also evaluated via fluorescence microscopy with a TAMRA labeled peptide. […] On the contrary, the BSA addition elicited stronger fluorescence staining of the bacteria, consistent with the flow cytometry results (FIG. 2D). […] To better understand this phenomenon, KAM5 was measured binding to these serum proteins via a fluorescence anisotropy experiment (FIGS. 16A-16B). KAM5 did show binding to both BSA and HAS at high protein concentrations, which is perhaps not surprising given these proteins display a large number of surface lysine residues.",
  "note": "Non-standard residues stand in square brackets, D forms with d. No end group written: not given here. *: point of attachment. APBA‑IA = cysteine S-alkylated with APBA-IA: S-[2-oxo-2-({3-[4-acetyl-3-boronophenoxy]propyl}amino)ethyl]-L-cysteine (Cm), CC(=O)c1ccc(OCCCNC(=O)C*)cc1B(O)O; FAM = 5(6)-carboxyfluorescein, amide on Dap side-chain amine; Dap = NC[C@H](N)C(=O)O",
  "data": [
    {"binder": "AC(APBA‑IA)VSPRSHEC(APBA‑IA)GGG[Dap](FAM)-NH2", "note": "[KAM5 (fluorescein/FAM labeled, APBA-IA modified): ACmVSPRSHECmGGGDap*]", "values": [
      {"measurement": "binding result", "result": "binds"}
    ]}
  ]
}
